One protein from publication PMC6272748, “Cysteine Specific Targeting of the Functionally Distinct Peroxiredoxin and Glutaredoxin Proteins by the Investigational Disulfide BNP7787” (Molecules, 2015) can be followed below.

This data set concerns the molecule itself. Description: crystal structure; co-crystal of BNP7787-modified Prx 4 from 1.6 M ammonium sulfate, 0.1 M MES pH 6.5, 10% dioxane; 2.3 Å, space group C2; five molecules in the asymmetric unit, decamer generated by crystal symmetry.

B1: human peroxiredoxin 4 (Prx 4) carrying a BNP7787-derived mesna adduct (enzyme, UniProt Q13162 79-271, looked up)
chain: AKISKPAPYWEGTAVIDGEFKELKLTDYRGKYLVFFFYPLDFTFVCPTEIIAFGDRLEEFRSINTEVVACSVDSQFTHLAWINTPRRQGGLGPIRIPLLSDLTHQISKDYGVYLEDSGHTLRGLFIIDDKGILRQITLNDLPVGRSVDETLRLVQAFQYTDKHGEVCPAGWKPGSETIIPDPAGKLKYFDKLN
modifications: BNP7787-derived mesna mixed disulfide on Cys 124 (in all molecules of the decamer); whole protein mass spectrometry consistent with two mesna adducts, the second proposed on Cys 245 (not visible in the electron density)
notes: Peroxiredoxin 4, human, wild type; No density beyond residue 242 in the crystal; TEV cleavage is described only for Grx 1; also called Prx IV; BNP7787-modified Prx 4; source: E. coli BL21(RIPL), purified (Ni2+ IMAC, size exclusion), reduced with DTT, then incubated with 40 mM BNP7787; copies: 10
In general, stoichiometry N refers to a count of units in the complex or per binding partner. Regarding B1, the “stoichiometry N” value came out at 10.
